doi:10.1101/2025.08.18.670068, “Computational Design of Soluble CCR8 Analogues with Preserved Antibody Binding” (bioRxiv, 2025)

Molecular target: T1, Wild-type CCR8 used as an assay control (Homo sapiens, UniProt P51685)
T1 construct: C-C chemokine receptor 8 (CCR8), human, wild type; Detergent-solubilised; 0.05% DDM and 0.01% CHS in the SPR running buffer; also called WT-CCR8; wild-type Human CCR8 protein; source: bought: Acro Biosystems (Cat. #CC8-H52D6)
Assay: SPR; Biacore 8K; mAb1 IgG1 captured on Protein A chip (about 400 RU); wild-type CCR8 as analyte; 10 mM HEPES, 150 mM NaCl, 3 mM EDTA, 0.005% Tween-20, pH 7.4, with 0.05% DDM and 0.01% CHS; steady-state affinity fit
Conditions: both partners purified

Kd: 190 nM
B1: mAb1 in full length human IgG1 format (antibody, V domains shown)
VH: QSVEESGGRLVTPGTPLTLTCTVSGFSLSNYAMIWVRQAPGEGLEWVGTISLGGYTYYANWAKGRFTISKTSTTVDLKISSPTTEDTATYFCARARWSTDSAIYTYAFDPWGPGTLVTVSS
VL: AYDMTQTPASVEVAVGGTVTIKCQASQSISSYLSWYQQKPGQRPELLIYKASTLASGVSSRFKGSGSGTQFTLTISDLEAADAATYYCQQGYTSSNIDNIFGGGTEVVVK
notes: VH of mAb1; constant region of human IgG1 heavy chain ('full length human IgG1 format'); light chain of mAb1; IgG1; captured on a Protein A chip for SPR; source: CHO cells, purified by one step Protein A chromatography
